Where “and” joins values, the source holds several entries; their conditions need not be identical. Equal values may be shown once. Read-outs that look alike come from different tables or passages of the source.
B3: S135Q-HSPB5, full-length oligomer (natural protein)
chain: MDIAIHHPWIRRPFFPFHSPSRLFDQFFGEHLLESDLFPTSTSLSPFYLRPPSFLRAPSWFDTGLSEMRLEKDRFSVNLDVKHFSPEELKVKVLGDVIEVHGKHEERQDEHGFISREFHRKYRIPADVDPLTITQSLSSDGVLTVNGPRKQVSGPERTIPITREEKPAVTAAPKK

Columns and labels:
[1] = target: T1, Alpha-B-crystallin CTR CTR (Homo sapiens, UniProt P02511)
T1 chain: ERTIPITRE

[2] = target: the molecule itself
[3] = target: B3; assay: SEC
SEC = target: the molecule itself; assay: SEC
[4] = target: B3; assay: SEC; remark: listed apart in the source
[5] = target: T2, E117C-HSPB5, full length (oligomeric) (human, UniProt P02511 1-175, E117C); assay: cross-linking
T2 sequence: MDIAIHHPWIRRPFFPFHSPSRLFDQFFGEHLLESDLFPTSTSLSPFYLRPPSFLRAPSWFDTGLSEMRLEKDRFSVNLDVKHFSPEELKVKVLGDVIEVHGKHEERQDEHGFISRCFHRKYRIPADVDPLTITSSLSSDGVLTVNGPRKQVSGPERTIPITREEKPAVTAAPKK

[6] = target: T3, S135Q/E117C full-length HSPB5 oligomer (human, UniProt P02511 1-175, E117C | S135Q); assay: cross-linking
T3 sequence: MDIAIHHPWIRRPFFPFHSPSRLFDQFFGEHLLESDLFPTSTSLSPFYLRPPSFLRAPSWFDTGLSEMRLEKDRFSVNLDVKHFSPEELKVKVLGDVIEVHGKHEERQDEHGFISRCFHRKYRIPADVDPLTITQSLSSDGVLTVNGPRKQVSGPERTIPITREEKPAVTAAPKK

[7] = target: T4, ΔN-HSPB6 (residues 65-160) (human, UniProt O14558 65-160); assay: NMR titration
T4 sequence: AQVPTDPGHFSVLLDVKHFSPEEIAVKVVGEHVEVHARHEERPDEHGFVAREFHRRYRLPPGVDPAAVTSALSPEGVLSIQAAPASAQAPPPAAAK

B1: Alpha-B-crystallin ACD ACD (protein)
chain: GLSEMRLEKDRFSVNLDVKHFSPEELKVKVLGDVIEVHGKHEERQDEHGFISREFHRKYRIPADVDPLTITSSLSSDGVLTVNGPRKQV
[1]
  Kd: ~100 µM
[2]
  Kd: ~2 µM
[3]
  binding result: binds

B2: HSPB6, full length, C46S (natural protein)
chain: MEIPVPVQPSWLRRASAPLPGLSAPGRLFDQRFGEGLLEAELAALSPTTLAPYYLRAPSVALPVAQVPTDPGHFSVLLDVKHFSPEEIAVKVVGEHVEVHARHEERPDEHGFVAREFHRRYRLPPGVDPAAVTSALSPEGVLSIQAAPASAQAPPPAAAK
SEC
  stoichiometry N: 2 and 4
[4]
  binding result: binds

## B3
SEC
  binding result: binds

B4: E117C-ACD-only (HSPB5 residues 64-152, E117C) (domain or fragment)
chain: GLSEMRLEKDRFSVNLDVKHFSPEELKVKVLGDVIEVHGKHEERQDEHGFISRCFHRKYRIPADVDPLTITSSLSSDGVLTVNGPRKQV
modifications: disulfide-locked dimer through C117 under nonreducing conditions
[5]
  binding result: binds
[6]
  binding result: binds

## PERTIPITREEK [HSPB5-CTR peptide PERTIPITREEK]
[7]
  binding result: binds
